Data as given in patent publication US11505811B2, “Method for the preparation of 2,4-dihydroxybutyrate” (ADISSEO FRANCE S.A.S., priority 2012, dated 2022).

What was measured:
Format in all cases: biochemical
[1] = OHB reductase activity, NADH absorption at 340 nm
Method: (§1) Enzymatic assays: The reaction mixture contained 60 mM Hepes (pH 7), 50 mM potassium chloride, 5 mM MgCl2, 0.25 mM NADH, (optionally 5 mM fructose-1,6-bisphosphate) (all products from Sigma), and appropriate amounts of purified malate or lactate dehydrogenase or cell extract. Reactions were started by adding appropriate amounts of 2-oxo-4-hydroxybutyrate (OHB), pyruvate, or oxaloacetate (OAA). Enzymatic assays were carried out at 37° C. in 96-well flat bottomed microtiter plates in a final volume of 250 μL. The reactions were followed by the characteristic absorption of NADH at 340 nm (εNADH=6.22 mM^−1 cm^−1) in a microplate reader (BioRad 680XR).
OHB was synthesized by incubating 125 mM homoserine with snake venom (L)-amino acid oxidase (1.25 U/mL, Sigma) and catalase (4400 U/mL, Sigma) in 100 mM Tris buffer at pH 7.8 for 90 min at 37° C. Subsequently, the reaction mixture was purified on an Amicon™ Ultra centrifugal filter with a cut-off of 10 kDa to eliminate the enzymes (method adapted from Wellner & Lichtenberg, 1971).
OHB was quantified by mixing 100 μL of the tested solution with 1 mL of a solution containing 1 M sodium arsenate and 1 M boric acid at pH 6.5. The mixture was incubated at room temperature for 30 min and the absorbance at 325 nm was used to quantify OHB. The relation between absorbance and concentration of the ketone was calibrated using pyruvate solutions of known concentrations (method adapted from (Wellner & Lichtenberg, 1971)). The typical OHB yield of the method was 90%.

[2] = pyruvate reductase activity, NADH absorption at 340 nm; conditions: for Max. specific activity, natural substrate: natural substrate of Ldh: pyruvate, purified enzyme, 37° C., pH 7; for Max. specific activity, Pyruvate: L. lactis Ll-LdhA mutants
Method: as §1

[3] = homoserine transaminase activity, coupled dehydrogenase assay; conditions: measured at 50 mM homoserine; 2-oxoglutarate as acceptor
Method: (§2) Enzymatic assays: Transaminase activity of several candidate aminotransferases was quantified with 2-oxoglutarate as the amino group acceptor. Transaminase reactions were carried out using homoserine and the preferred amino acid of the enzymes. The reactions were followed by the amino acid-dependent oxidation of NADH in the coupled dehydrogenase reaction.
(§3) Transaminase Assays (Reaction Scheme)
(§4) Transaminase: Amino acid+2-oxoglutarate→2-oxo-acid+glutamate
(§5) Dehydrogenase: 2-oxo-acid+NADH→2-hydroxy-acid+NAD^+
The reaction mixture contained 60 mM Hepes (pH 7), 50 mM potassium chloride, 5 mM MgCl2, 4 mM 2-oxoglutarate, 0.1 mM pyridoxal-5′-phosphate (PLP), 0.25 mM NADH, (optionally 5 mM fructose-1,6-bisphosphate) (all products from Sigma), 4 Units/mL of auxiliary 2-hydroxyacid dehydrogenase, and appropriate amounts of purified aminotransferase or cell extract. The auxiliary dehydrogenase enzyme was purified PanE from L. lactis in case of the amino acids phenylalanine and leucine (Chambellon, Rijnen, Lorquet, Gitton, van HylckamaVlieg, Wouters, & Yvon, 2009), malate dehydrogenase (Sigma) in case of aspartate, and rabbit muscle (L)-lactate dehydrogenase (Sigma) when homoserine was used as the starting substrate. Reactions were started by adding 50 mM of the amino acid.
(§6) Enzymatic assays were carried out at 37° C. in 96-well flat bottomed microtiter plates in a final volume of 250 μL. The reactions were followed by the characteristic absorption of NAD(P)H at 340 nm (εNADPH=6.22 mM^−1 cm^−1) in a microplate reader (BioRad 680XR).

[4] = transaminase activity on preferred amino acid (L), coupled dehydrogenase assay; conditions: superscript (L); 50 mM amino acid; 2-oxoglutarate as acceptor
Method: as §2, §3, §4, §5
The reaction mixture contained 60 mM Hepes (pH 7), 50 mM potassium chloride, 5 mM MgCl2, 4 mM 2-oxoglutarate, 0.1 mM pyridoxal-5′-phosphate (PLP), 0.25 mM NADH, (optionally 5 mM fructose-1,6-bisphosphate) (all products from Sigma), 4 Units/mL of auxiliary 2-hydroxyacid dehydrogenase, and appropriate amounts of purified aminotransferase or cell extract. […]
as §6

[5] = when not saturated, activity estimated at 20 mM substrate

| Molecule | Max. specific activity, OHB [1, 5] | Max. specific activity, natural substrate [2] | Max. specific activity on Homoserine [3] | other results |
| --- | --- | --- | --- | --- |
| Ec-LdhA: (D)-lactate dehydrogenase from Escherichia coli, SEQ ID NO: 4 (protein, listed as Escherichia coli) MKLAVYSTKQYDKKYLQQVNESFGFELEFFDFLLTEKTAKTANGCEAVCIFVNDDGSRPVLEELKKHGVKYIALRCAGFNNVDLDAAKELGLKVVRVPAYDPEAVAEHAIGMMMTLNRRIHRAYQRTRDANFSLEGLTGFTMYGKTAGVIGTGKIGVAMLRILKGFGMRLLAFDPYPSAAALELGVEYVDLPTLFSESDVISLHCPLTPENYHLLNEAAFEQMKNGVMIVNTSRGALIDSQAAIEALKNQKIGSLGMDVYENERDLFFEDKSNDVIQDDVFRRLSACHNVLFTGHQAFLTAEALTSISQTTLQNLSNLEKGETCPNELV | 0.56 µmol/mg/min | 265 µmol/mg/min | – | – |
| Ll-BcaT: branched-chain-amino-acid transaminase from Lactococcus lactis, SEQ ID No. 68 (protein, listed as Lactococcus lactis) MAINLDWENLGFSYRNLPFRYIARFKDGKWSAGELTGDNQLHISESSPALHYGQQGFEGLKAYRTKDGSIQLFRPDQNAARLQNTARRLCMAEVPTEMFIDAVKQVVKANEDFVPPYGTGATLYLRPLLIGVGDVIGVKPADEYIFTVFAMPVGSYFKGGLAPSKFVISRDYDRAAPLGTGGAKVGGNYAASLQAEVGAKASGYADAIYLDPSTHTKIEEVGAANFFGITADNEFITPLSPSILPSITKYSLLYLAEHRLGLKAIEGEVYAKDLGKFVEAGACGTAAIISPIGRIDDGEDSYIFHSETEVGPTVKRLYDELVGIQFGDVEAPEGWIVKVD | – | – | 0.028 μmol/(min mgprot) | Max. specific activity on preferred amino acid (L) [4]: 30.39^(L) μmol/(min mgprot) |
| Ll-AraT: aromatic-amino-acid transaminase from L. lactis, SEQ ID No. 66 (protein, listed as Lactococcus lactis) MDLLKKFNPNLDKIEISLIRQFDQQVSSIPDVIKLTLGEPDFYTPEHVKQAGIVAIENNQSHYTGMAGLLELRQAASEFMNKKYGLSYAAEDEILVTVGVTEAISSVLLSILVAGDEVLIPAPAYPGYEPLITLAGGSLVEIDTRANDFVLTPEMLEQAIVEREGKVKAVILNYPANPTGVTYNRGQIKALAEVLKKHEVFVIADEVYSELNYTDQPHVSIAEYAPEQTIVLNGLSKSHAMTGWRIGLIFAARELVAQIIKTHQYLVTSASTQSQFAAIEALKNGAYDALPMKKEYLKRRDYIIEKMSDLGFKIIEPDGAFYIFAKIPADLEQDSFKFAVDFAKENAVAIIPGIAFGQYGEGFVRLSYAASMDMIEQAMARLTDYVTKKRG | – | – | 0.109 μmol/(min mgprot) | – |
| Sc-ARO8: aromatic-amino-acid transaminase from Saccharomyces cerevisiae, SEQ ID No. 70 (protein, listed as Saccharomyces cerevisiae) MTLPESKDFSYLFSDETNARKPSPLKTCIHLFQDPNIIFLGGGLPLKDYFPWDNLSVDSPKPPFPQGIGAPIDEQNCIKYTVNKDYADKSANPSNDIPLSRALQYGFSAGQPELLNFIRDHTKIIHDLKYKDWDVLATAGNTNAWESTLRVFCNRGDVILVEAHSFSSSLASAEAQGVITFPVPIDADGIIPEKLAKVMENWTPGAPKPKLLYTIPTGQNPTGTSIADHRKEAIYKIAQKYDFLIVEDEPYYFLQMNPYIKDLKEREKAQSSPKQDHDEFLKSLANTFLSLDTEGRVIRMDSFSKVLAPGTRLGWITGSSKILKPYLSLHEMTIQAPAGFTQVLVNATLSRWGQKGYLDWLLGLRHEYTLKRDCAIDALYKYLPQSDAFVINPPIAGMFFTVNIDASVHPEFKTKYNSDPYQLEQSLYHKVVERGVLVVPGSWFKSEGETEPPQPAESKEVSNPNIIFFRGTYAAVSPEKLTEGLKRLGDTLYEEFGISK | – | – | 0.076 μmol/(min mgprot) | – |
| Ec-TyrB: aromatic-amino-acid transaminase from E. coli, SEQ ID No. 62 (protein, listed as Escherichia coli) VFQKVDAYAGDPILTLMERFKEDPRSDKVNLSIGLYYNEDGIIPQLQAVAEAEARLNAQPHGASLYLPMEGLNCYRHAIAPLLFGADHPVLKQQRVATIQTLGGSGALKVGADFLKRYFPESGVWVSDPTWENHVAIFAGAGFEVSTYPWYDEATNGVRFNDLLATLKTLPARSIVLLHPCCHNPTGADLTNDQWDAVIEILKARELIPFLDIAYQGFGAGMEEDAYAIRAIASAGLPALVSNSFSKIFSLYGERVGGLSVMCEDAEAAGRVLGQLKATVRRNYSSPPNFGAQVVAAVLNDEALKASWLAEVEEMRTRILAMRQELVKVLSTEMPERNFDYLLNQRGMFSYTGLSAAQVDRLREEFGVYLIASGRMCVAGLNTANVQRVAKAFAAVM | – | – | 0.057 μmol/(min mgprot) | – |
| Gs-Ldh: (L)-lactate dehydrogenase of Geobacillus stearothermophilus, SEQ ID NO: 10 (protein, listed as Geobacillus sterarothermophillus) MKNNGGARVVVIGAGFVGASYVFALMNQGIADEIVLIDANESKAIGDAMDFNHGKVFAPKPVDIWHGDYDDCRDADLVVICAGANQKPGETRLDLVDKNIAIFRSIVESVMASGFQGLFLVATNPVDILTYATWKFSGLPHERVIGSGTILDTARFRFLLGEYFSVAPQNVHAYIIGEHGDTELPVWSQAYIGVMPIRKLVESKGEEAQKDLERIFVNVRDAAYQIIEKKGATYYGIAMGLARVTRAILHNENAILTVSAYLDGLYGERDVYIGVPAVINRNGIREVIEIELNDDEKNRFHHSAATLKSVLARAFTR | 66.8 µmol/mg/min | 87.7 µmol/mg/min | – | – |
| Q85N: L. lactis lactate dehydrogenase A, Ll-LdhA, mutant Q85N, SEQ ID No. 30 (protein, listed as Lactococcus lactis) MADKQRKKVILVGDGAVGSSYAFALVNQGIAQELGIVDLFKEKTQGDAEDLSHALAFTSPKKIYSADYSDASDADLVVLTSGAPNKPGETRLDLVEKNLRITKDVVTKIVASGFKGIFLVAANPVDILTYATWKFSGFPKNRVVGSGTSLDTARFRQALAEKVDVDARSIHAYIMGEHGDSEFAVWSHANVAGVKLEQWFQENDYLNEAEIVELFESVRDAAYSIIAKKGATFYGVAVALARITKAILDDEHAVLPVSVFQDGQYGVSDCYLGQPAVVGAEGVVNPIHIPLNDAEMQKMEASGAQLKAIIDEAFAKEEFASAVKN | – | – | – | Max. specific activity, OHB ([1]; L. lactis Ll-LdhA mutants): 63.9 µmol/mg/min; Max. specific activity, Pyruvate [2]: 184 µmol/mg/min |
| Q85NI226V: L. lactis lactate dehydrogenase A, Ll-LdhA, mutant Q85N I226V, SEQ ID No. 32 (protein, listed as Lactococcus lactis) MADKQRKKVILVGDGAVGSSYAFALVNQGIAQELGIVDLFKEKTQGDAEDLSHALAFTSPKKIYSADYSDASDADLVVLTSGAPNKPGETRLDLVEKNLRITKDVVTKIVASGFKGIFLVAANPVDILTYATWKFSGFPKNRVVGSGTSLDTARFRQALAEKVDVDARSIHAYIMGEHGDSEFAVWSHANVAGVKLEQWFQENDYLNEAEIVELFESVRDAAYSIVAKKGATFYGVAVALARITKAILDDEHAVLPVSVFQDGQYGVSDCYLGQPAVVGAEGVVNPIHIPLNDAEMQKMEASGAQLKAIIDEAFAKEEFASAVKN | – | – | – | Max. specific activity, OHB ([1]; L. lactis Ll-LdhA mutants): 4.9 µmol/mg/min; Max. specific activity, Pyruvate [2]: 11.5 µmol/mg/min |
| Bs-Ldh: (L)-lactate dehydrogenase of Bacillus subtilis, SEQ ID NO: 8 (protein, listed as Bacillus subtilis) MMNKHVNKVALIGAGFVGSSYAFALINQGITDELVVIDVNKEKAMGDVMDLNHGKAFAPQPVKTSYGTYEDCKDADIVCICAGANQKPGETRLELVEKNLKIFKGIVSEVMASGFDGIFLVATNPVDILTYATWKFSGLPKERVIGSGTTLDSARFRFMLSEYFGAAPQNVHAHIIGEHGDTELPVWSHANVGGVPVSELVEKNDAYKQEELDQIVDDVKNAAYHIIEKKGATYYGVAMSLARITKAILHNENSILTVSTYLDGQYGADDVYIGVPAVVNRGGIAGITELNLNEKEKEQFLHSAGVLKNILKPHFAEQKVN | 15.7 µmol/mg/min | 170 µmol/mg/min | – | – |
